Results on eight molecules are retold here after paper PMC4428629, “The Structure of an NDR/LATS Kinase–Mob Complex Reveals a Novel Kinase–Coactivator System and Substrate Docking Mechanism” (PLoS Biology, 2015).

The subject of experiment [1] is Cbk1^251–756–Mob2 (T743E). Nature of the experiment: Peptide kinase assay, WT Cbk1 (T743E). The format is biochemical, Saccharomyces cerevisiae. The following applies: for 32P incorporation into peptide, Average: Average of Rep 1-4, 100 μM peptide, 50 nM kinase, 40 μM ATP, 1 h. On the procedure:
(§1) For peptide kinase assays, reactions were performed in the presence of 50 nM Cbk1^251–756–Mob2, 40 μM ATP, 2 mM DTT, 5 mM MnCl2, 2 μCi γ-^32P-ATP, and 100 μM Docktide ([…]) or AKAPtide ([…]). Reactions were initiated by the addition of ATP. Samples were quenched after 1 h by the addition of a 5-μl sample to P81 paper (Whatman) and subsequent submersion in 75 mM phosphoric acid to remove background γ-^32P-ATP. After drying, signal was determined by Čerenkov counting in an LS 6500 scintillation counter (Beckman). Counts per minute was efficiency corrected and converted to femtomoles ^32P followed by conversion to total ATP (labeled and unlabeled). Significance was determined by an unpaired two-tailed Student’s t-test.
(§2) Supplementary file pbio.1002146.s003.xlsx: S3 Data Enzymological characterization of the effects of Cbk1 docking. Assay data from experiments that used γ-^32P-ATP in protein kinase reactions with synthetic substrate peptides from Ssd1 that either contained both the core Cbk1 docking motif and a Cbk1 phosphorylation consensus motif (Docktide) or contained a core Cbk1 docking motif mutated to abrogate binding to the kinase and a Cbk1 consensus motif (AKAPtide). These kinase assays were performed either with Cbk1(T743E) or with Cbk1(Y687A/T743E). The latter construct carries a mutation that eliminates docking motif association with the kinase. (XLSX) Click here for additional data file.

The test system of another experiment is Cbk1(Y687A/T743E). Nature of the experiment: Peptide kinase assay, Cbk1(Y687A/T743E). The format is biochemical, Saccharomyces cerevisiae. Particulars: for 32P incorporation into peptide, Average: Average of Rep 1-4, 100 μM peptide, 50 nM kinase, 40 μM ATP, 1 h. On the procedure:
as §1, §2

A further experiment deals with T1, Cbk1^Δ730–756–Mob2 (Saccharomyces cerevisiae, UniProt P43563+P53894).
T1 construct: His6-Cbk1^251–756 was co-expressed with GST-Mob2 (full length or 45–287); His6 (N); made in house
Nature of the experiment: biochemical. The format is binding. The text has this: ND, not determined. […] (PDF) Click here for additional data file.

Experiment [2] addresses pepAce2, carboxyfluorescein-labelled (S. cerevisiae). Nature of the experiment: fluorescence polarisation; direct titration: protein titrated into 20 nM carboxyfluorescein-labelled peptide; 20 mM Tris (pH 8.0), 100 mM NaCl, 0.05% Brij35P, 2 mM DTT; quadratic binding equation. (In general: In fluorescence polarisation assays a small probe gives low polarisation when free and higher when bound to something large.)

The next experiment relates to Cbk1–Mob2. Nature of the experiment: In vitro pulldown of Cbk1–Mob2. It is filed as binding, Saccharomyces cerevisiae. Particulars: in vitro binding (Figs 4B, S5A, S5E). On the procedure: Cbk1 substrates containing the docking motifs or substrate sites were bacterially expressed as MBP or GST fusions. For pulldown assays, MBP-fusion lysates were incubated with amylose resin (New England Biolabs) on ice for 15 min, followed by washing with PBS (137 mM NaCl, 2.7 mM KCl, 4.3 mM Na2HPO4, 1.4 mM KH2PO4 [pH 7.3]). GST fusions were purified on glutathione Sepharose beads followed by dialysis into Cbk1 buffer.
MBP fusions were incubated on bead with 1 μM purified Cbk1 on ice for 15 min. Samples were washed 3× with PBS (transferred to fresh tube on last wash), resuspended in SDS-PAGE buffer, and separated by SDS-PAGE. Samples were directly visualized with GelCode Blue (Pierce) or transferred to PVDF membrane for immunoblotting. Cbk1 was detected using His or pS570 primary antibodies. For experiments detected using α-pS570, antibody signal with pure protein was analyzed to control for lot-dependent variations in expression as well as variations between Cbk1 mutants (no variations detected).

For experiment [3], the target named is T2, Cbk1^352–756 kinase domain (S. cerevisiae, UniProt P53894 352-756).
T2 construct: source: bacterially expressed, purified (Ni-NTA, glutathione Sepharose); not shown: His6, C-terminal, kept
T2 sequence (looked up): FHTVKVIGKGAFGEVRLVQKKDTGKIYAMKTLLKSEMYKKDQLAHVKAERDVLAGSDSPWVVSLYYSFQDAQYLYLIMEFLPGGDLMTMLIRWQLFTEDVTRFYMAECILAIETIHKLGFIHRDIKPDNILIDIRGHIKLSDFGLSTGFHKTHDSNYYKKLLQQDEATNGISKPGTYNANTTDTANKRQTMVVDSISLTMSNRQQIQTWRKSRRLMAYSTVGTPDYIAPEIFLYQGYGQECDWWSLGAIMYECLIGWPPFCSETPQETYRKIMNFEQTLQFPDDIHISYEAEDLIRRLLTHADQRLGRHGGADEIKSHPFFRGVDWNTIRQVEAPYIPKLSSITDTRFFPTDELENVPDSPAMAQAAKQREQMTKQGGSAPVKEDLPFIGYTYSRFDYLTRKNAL
Nature of the experiment: pull-down; pull-down of Cbk1^352–756 by bead-bound Ace2 or Ssd1 docking motifs in competition with unbound Ace2^270–290. The following applies: both partners purified.

A further experiment concerns the target Cbk1(W444A)–Mob2 complex (S. cerevisiae, UniProt P53894 251-756; P43563 1-287, W444A). Nature of the experiment: FP.
A further experiment concerns the target Cbk1(Y687A)–Mob2 complex (S. cerevisiae, UniProt P53894 251-756; P43563 1-287, Y687A). Nature of the experiment: FP.
Experiment [4] addresses T3, Cbk1^251–756–Mob2 complex (S. cerevisiae, UniProt P53894 251-756; P43563 1-287).
T3 chain 1: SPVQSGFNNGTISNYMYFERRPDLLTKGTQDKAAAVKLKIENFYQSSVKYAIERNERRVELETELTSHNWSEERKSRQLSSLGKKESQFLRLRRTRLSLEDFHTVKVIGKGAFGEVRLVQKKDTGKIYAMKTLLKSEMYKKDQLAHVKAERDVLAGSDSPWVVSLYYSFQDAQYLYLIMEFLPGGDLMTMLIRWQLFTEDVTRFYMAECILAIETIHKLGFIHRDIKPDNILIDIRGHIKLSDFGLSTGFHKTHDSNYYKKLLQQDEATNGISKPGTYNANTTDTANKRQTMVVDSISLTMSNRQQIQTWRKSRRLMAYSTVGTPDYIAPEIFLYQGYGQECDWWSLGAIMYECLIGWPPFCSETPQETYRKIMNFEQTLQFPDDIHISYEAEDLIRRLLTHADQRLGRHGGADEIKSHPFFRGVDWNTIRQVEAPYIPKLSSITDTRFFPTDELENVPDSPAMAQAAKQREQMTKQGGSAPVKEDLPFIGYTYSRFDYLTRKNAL
T3 chain 2: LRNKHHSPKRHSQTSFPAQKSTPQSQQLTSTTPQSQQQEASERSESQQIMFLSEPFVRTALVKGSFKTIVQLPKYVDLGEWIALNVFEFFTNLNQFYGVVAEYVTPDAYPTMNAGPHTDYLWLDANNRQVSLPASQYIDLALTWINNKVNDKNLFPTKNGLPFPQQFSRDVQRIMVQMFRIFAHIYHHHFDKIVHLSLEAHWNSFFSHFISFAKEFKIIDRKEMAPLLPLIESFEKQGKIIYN
Nature of the experiment: FP.

A further experiment has as its target Cbk1(F699A)–Mob2 complex (S. cerevisiae, UniProt P53894 251-756; P43563 1-287, F699A). Nature of the experiment: FP.
For another experiment, the target named is Cbk1(F447A)–Mob2 complex (S. cerevisiae, UniProt P53894 251-756; P43563 1-287, F447A). Nature of the experiment: FP.

Non-standard residues stand in square brackets, D forms with d. Residues, ends and D or L forms follow the SMILES beside them. No end group written: not given here. carboxyfluorescein = carboxyfluorescein label; pT = C[C@@H](OP(=O)(O)O)[C@H](N)C(=O)O

Chain of Cbk1(Y687A)–Mob2 complex (P53894 251-756 Y687A, chain 1 of 2, one chain of several): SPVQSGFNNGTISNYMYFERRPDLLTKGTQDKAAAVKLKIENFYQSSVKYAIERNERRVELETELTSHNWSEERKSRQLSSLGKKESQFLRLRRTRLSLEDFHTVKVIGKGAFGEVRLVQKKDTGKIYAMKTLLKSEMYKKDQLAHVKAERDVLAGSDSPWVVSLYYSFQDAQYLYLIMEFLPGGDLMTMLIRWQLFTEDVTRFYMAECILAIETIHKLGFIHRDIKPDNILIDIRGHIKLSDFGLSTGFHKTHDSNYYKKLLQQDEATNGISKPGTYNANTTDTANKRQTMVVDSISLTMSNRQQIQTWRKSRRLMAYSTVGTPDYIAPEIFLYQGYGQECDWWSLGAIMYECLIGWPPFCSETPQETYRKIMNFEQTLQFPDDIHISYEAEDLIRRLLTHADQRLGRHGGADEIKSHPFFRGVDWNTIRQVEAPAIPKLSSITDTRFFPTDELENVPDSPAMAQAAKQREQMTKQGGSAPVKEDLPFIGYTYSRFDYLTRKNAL
Chain of Cbk1(W444A)–Mob2 complex (P53894 251-756 W444A, chain 1 of 2, one chain of several): as the sequence (P53894 251-756 Y687A, chain 1 of 2, one chain of several) above, with W194A, A437Y counted along it
T1 sequence (P43563 whole entry, stated change not applied, one chain of several): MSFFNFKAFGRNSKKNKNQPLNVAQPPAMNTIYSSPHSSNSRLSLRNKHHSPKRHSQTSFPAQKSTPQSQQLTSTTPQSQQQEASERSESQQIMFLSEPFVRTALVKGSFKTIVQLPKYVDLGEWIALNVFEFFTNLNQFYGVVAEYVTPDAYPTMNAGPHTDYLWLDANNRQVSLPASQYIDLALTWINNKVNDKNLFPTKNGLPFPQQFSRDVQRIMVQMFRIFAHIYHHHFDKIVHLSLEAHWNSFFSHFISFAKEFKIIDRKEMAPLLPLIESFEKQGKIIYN
Chain of Cbk1(F447A)–Mob2 complex (P53894 251-756 F447A, chain 1 of 2, one chain of several): as the sequence (P53894 251-756 Y687A, chain 1 of 2, one chain of several) above, with F197A, A437Y counted along it

With “CDFKFPPPPNAHGGHRRATSN [Docktide, Ssd1 (210–229)-based peptide with docking motif FKFP and Cbk1 consensus site]”, the “32P incorporation into peptide, Average” value in experiment [1] was determined as 76.8 fmol; in the experiment with Cbk1(Y687A/T743E) it was 45.9 fmol. Moreover, the “effect of WT docking motif on phosphorylation” value in experiment [1] (relative to peptide with mutant docking motif (AKAPtide)) is on record as “enhances phosphorylation by WT Cbk1”; with Cbk1(Y687A/T743E) (Cbk1(Y687A)) it was “loses this enhancement”.
Turning to `CC[C@H](C)[C@H](N)C(=O)NCC(=O)N[C@@H](Cc1ccc(O)cc1)C(=O)N[C@H](C(=O)N[C@@H](Cc1ccc(O)cc1)C(=O)N[C@@H](CO)C(=O)N[C@@H](CCCNC(=N)N)C(=O)N[C@@H](Cc1ccccc1)C(=O)N[C@@H](CC(=O)O)C(=O)N[C@@H](Cc1ccc(O)cc1)C(=O)O)[C@@H](C)O` [pepHM] (H-IGYTYSRFDY-OH), at Cbk1^Δ730–756–Mob2, the Kd was around 33 µM.
The molecule “Cbk1^251–756–Mob2 complex (from UniProt P53894 251-756; P43563 1-287)” returned a Kd in [2] of 6 µM. This lies in the single-digit micromolar range.
On to “15-amino-acid peptide from Ace2: 15-amino-acid peptide from Ace2 with the sequence YQFP at its C-terminal end (IIVTTNSANGGYQFP; also: MBP fusion, end not given here)”, for which the “association with Cbk1–Mob2” value in the experiment with Cbk1–Mob2 was “associates with the Cbk1–Mob2 complex”.
“CDAKAPPPPNAHGGHRRATSN [AKAPtide, Ssd1-based peptide with mutated docking motif AKAP and Cbk1 consensus site]”: the “32P incorporation into peptide, Average” value was 57.4 fmol in experiment [1] and 45.5 fmol in the experiment on Cbk1(Y687A/T743E).

B1: unbound Ace2^270–290 (domain or fragment, S. cerevisiae, UniProt P21192 270-290, looked up)
chain: NAIIVTTNSANGGYQFPPPTL
Consider B1, for which the binding result in experiment [3] is on record as “binds”.

B2: pepSSD1, carboxyfluorescein-labelled (peptide)
peptide: carboxyfluorescein-TTEQSDFKFP
Consider B2, for which the equilibrium dissociation constant (Kd) with Cbk1(W444A)–Mob2 complex was determined as 58 µM; with Cbk1(Y687A)–Mob2 complex, 36 µM; in [4] it was 6 µM; with Cbk1(F699A)–Mob2 complex it was 4.9 µM.

B3: pepHM-P, carboxyfluorescein-labelled (peptide)
peptide: IGY[pT]YSRFDY-carboxyfluorescein
With B3, the Kd is 24 µM in the experiment with Cbk1(W444A)–Mob2 complex; 22 µM with Cbk1(Y687A)–Mob2 complex; 20 µM in experiment [4]; 33 µM with Cbk1(F447A)–Mob2 complex; 28 µM in the experiment with Cbk1(F699A)–Mob2 complex.

One may read the Kd as the concentration at which binding is half-saturated. Low values mean a tighter complex, high ones a looser complex.
